# Reference: patent US20190112342A1 (UNIVERSITY OF CHICAGO, published 2019)
# Target: T1, human prothrombin (human, UniProt P00734 44-622)
# T1 construct: also called PT
# Experiment: affinity chromatography of human citrate-plasma, immunoblot with anti-prothrombin
row,Binder,binding result
1,"full-length strep-tagged Coa (CoaST) (other, Purified over Strep-Tactin-Sepharose; Used in the plasma pull-down and in the prothrombin and fibrinogen interference ELISAs; not shown: Strep tag) IVTKDYSGKSQVNAGSKNGTLIDSRYLNSALYYLEDYIIYAIGLTNKYEYGDNIYKEAKDRLLEKVLREDQYLLERKKSQYEDYKQWYANYKKENPRTDLKMANFHKYNLEELSMKEYNELQDALKRALDDFHREVKDIKDKNSDLKTFNAAEEDKATKEVYDLVSEIDTLVVSYYGDKDYGEHAKELRAKLDLILGDTDNPHKITNERIKKEMIDDLNSIIDDFFMETKQNRPKSITKYNPTTHNYKTNSDNKPNFDKLVEETKKAVKEADDSWKKKTVKKYGETETKSPVVKEEKKVEEPQAPKVDNQQEVKTTAGKAEETTQPVAQPLVKIPQGTITGEIVKGPEYPTMENKTVQGEIVQGPDFLTMEQSGPSLSNNYTNPPLTNPILEGLEGSSSKLEIKPQGTESTLKGTQGESSDIEVKPQATETTEASQYGPRPQFNKTPKYVKYRDAGTGIREYNDGTFGYEARPRFNKPSETNAYNVTTHANGQVSYGARPTYKKPSETNAYNVTTHANGQVSYGARPTQNKPSKTNAYNVTTHGNGQVSYGARPTQNKPSKTNAYNVTTHANGQVSYGARPTYKKPSKTNAYNVTTHADGTATYGPRVTK",binds
2,"R domain of Coa Newman with C-terminal Strep tag (RST) (other, Encoded by plasmid pET15b-rST; also called repeat (R) domain; not shown: C-terminal Strep tag) EARPRFNKPSETNAYNVTTHANGQVSYGARPTYKKPSETNAYNVTTHANGQVSYGARPTQNKPSKTNAYNVTTHGNGQVSYGARPTQNKPSKTNAYNVTTHANGQVSYGARPTYKKPSKTNAYNVTTHADGTATYG",no binding
